From PMC9952396
Where “and” joins values, the source holds several entries; their conditions need not be identical. Identical values can stand only once.

Target: T1, Cys30 (UniProt position 49, FFSFFCPHCYQ)
Assay: not given
Settings: not stated (literature values for wild-type EcDsbA); cited from earlier work
In the case of “Thiol:disulfide interchange protein DsbA (EcDsbA), wild type (Escherichia coli (K-12))”, the pKa is listed as 3.55 ± 0.02 and ~3.4.

Target: T1, Cys30
Assay: UV-vis
Settings: room temperature, 200 mM KCl plus buffer salts, 10 mM dipotassium phosphate, 10 mM monopotassium phosphate, 10 mM sodium citrate, 10 mM Tris, 1 mM EDTA, Reduced DsbA (DTT-reduced, reagent removed), with oxidised DsbA (Cu(II)-phenanthroline-oxidised) as reference
“EcDsbA E24A/E37A/K58A (Escherichia coli (K-12); E24A;E37A;K58A)” gave a pKa of 3.5 ± 0.1.
“Thiol:disulfide interchange protein DsbA (EcDsbA), wild type (Escherichia coli (K-12))” showed a pKa of 3.3 ± 0.1.
With “EcDsbA E37A (Escherichia coli (K-12); E37A)” the pKa was 3.3 ± 0.1.
With “EcDsbA E24A/K58A (Escherichia coli (K-12); E24A;K58A)” the pKa was 3.5 ± 0.1.
With “EcDsbA K58A (Escherichia coli (K-12); K58A)” the pKa was 3.4 ± 0.1.
Substance “EcDsbA E24A (Escherichia coli (K-12); E24A)” has a pKa of 3.7 ± 0.1.
